Experimental data from patent US11453711B2, “Fusion proteins of GLP-1 and GDF15 and conjugates thereof” (BEIJING QL BIOPHARMACEUTICAL CO., LTD., priority 2019, dated 2022).
Where a chain is given by its changes, count along the chain named.

B1: MLC043: fusion polypeptide SEQ ID NO: 326 conjugated with Moiety A at 26K of GLP-1 (conjugate)
chain: HGEGTFTSDVSSYLEEQAAKEFIAWLVRGGGGQEPGAQPGQEPGAQPGQEPGAQPGQEPGAQPGQEPGAQPGQEPGAQPGAQPGAQPGAQPARQGDHCPLGPGRCCRLHTVRASLEDLGWADWVLSPREVQVTMCIGACPSQFRAANLHAQIKTSLHRLRPDTVPAPCCVPASYNPMVLIQRTDTGVSLQTYDDLLARDCHCI
modifications: Moiety A conjugated at K26
B2: MLC027: fusion polypeptide SEQ ID NO: 274 conjugated with Moiety A at 55K of Linker (conjugate)
chain: HGEGTFTSDVSSYLEEQAAREFIAWLVRGGGGAQPGAQPGAQPGAQPGAQPGAQPGAQPGAQPGQEPGAQPGQEPGAQPGQEPGQKPGQEPGQEPGQEPGQEPGAQPGAQPARQGDHCPLGPGRCCRLHTVRASLEDLGWADWVLSPREVQVTMCIGACPSQFRAANLHAQIKTSLHRLRPDTVPAPCCVPASYNPMVLIQRTDTGVSLQTYDDLLARDCHCI
modifications: Moiety A conjugated at linker K55
B3: MLC018: fusion polypeptide SEQ ID NO: 265 conjugated with Moiety A at 52K of Linker (conjugate)
chain: HGEGTFTSDVSSYLEEQAAREFIAWLVRGGGGQEPGAQPGQEPGAQPGQEPGAQPGQEPGAQPGQEPGAQPGQEPGAQPGQEKGAQPGQEPGAQPGQEPGAQPGQEPGAQPARQGDHCPLGPGRCCRLHTVRASLEDLGWADWVLSPREVQVTMCIGACPSQFRAANLHAQIKTSLHRLRPDTVPAPCCVPASYNPMVLIQRTDTGVSLQTYDDLLARDCHCI
modifications: Moiety A conjugated at linker K52
B4: MLC103: fusion polypeptide SEQ ID NO: 390 conjugated with Moiety A at 71K of Linker (conjugate)
chain: B3 chain with Q81A, E82Q, K83P, Q89A, E90Q, Q97A, E98Q, Q102K, Q105A, E106Q
modifications: Moiety A conjugated at linker Lys71
B5: MLC064: fusion polypeptide SEQ ID NO: 359 conjugated with Moiety A at 51K of Linker (conjugate)
chain: B3 chain with Q81A, E82K, K83P, Q89A, E90Q, Q97A, E98Q, Q105A, E106Q
modifications: Moiety A conjugated at linker K51
B6: MLC046: fusion polypeptide SEQ ID NO: 329 conjugated with Moiety A at 60K of linker (conjugate)
chain: B3 chain with Q81A, E82Q, K83P, Q89A, E90Q, P91K, Q97A, E98Q, Q105A, E106Q
modifications: Moiety A conjugated at linker K60
B7: MLC104: fusion polypeptide SEQ ID NO: 391 conjugated with Moiety A at 76K of Linker (conjugate)
chain: B3 chain with Q81A, E82Q, K83P, Q89A, E90Q, Q97A, E98Q, Q105A, E106Q, P107K
modifications: Moiety A conjugated at linker Lys76
B8: MLC030: fusion polypeptide SEQ ID NO: 277 conjugated with Moiety A at 15K of Linker (conjugate)
chain: HGEGTFTSDVSSYLEEQAAREFIAWLVRGGGGQEPGQEPGQEPGQKPGQEPGQEPGQEPGQEPGAQPGAQPGAQPGAQPGAQPGAQPGAQPGAQPGAQPGAQPGAQPGAQPARQGDHCPLGPGRCCRLHTVRASLEDLGWADWVLSPREVQVTMCIGACPSQFRAANLHAQIKTSLHRLRPDTVPAPCCVPASYNPMVLIQRTDTGVSLQTYDDLLARDCHCI
modifications: Moiety A conjugated at linker K15
B9: MLC012: fusion polypeptide SEQ ID NO: 259 conjugated with Moiety A at 12K of Linker (conjugate)
chain: HGEGTFTSDVSSYLEEQAAREFIAWLVRGGGGQEPGQEPGQEKGQEPGQEPGQEPGQEPGQEPGQEPGQEPARQGDHCPLGPGRCCRLHTVRASLEDLGWADWVLSPREVQVTMCIGACPSQFRAANLHAQIKTSLHRLRPDTVPAPCCVPASYNPMVLIQRTDTGVSLQTYDDLLARDCHCI
modifications: Moiety A conjugated at linker K12
B10: MLC014: negative control, SEQ ID NO: 261: linker fused to N terminal of GDF15, CRM conjugated to lysine in the linker; GDF15 derivative (conjugate)
chain: SEPATSGQEKGQEPGQEPGQEPGQEPGQEPGAQPGAQPARQGDHCPLGPGRCCRLHTVRASLEDLGWADWVLSPREVQVTMCIGACPSQFRAANLHAQIKTSLHRLRPDTVPAPCCVPASYNPMVLIQRTDTGVSLQTYDDLLARDCHCI
modifications: CRM conjugated to linker lysine
notes: GDF15 derivative
B11: MLC045: fusion polypeptide SEQ ID NO: 328 conjugated with Moiety A at 1K and 55K of Linker (conjugate)
chain: HGEGTFTSDVSSYLEEQAAREFIAWLVRGGGKQEPGAQPGQEPGAQPGQEPGAQPGQEPGAQPGQEPGAQPGQEPGAQPGAQPGAKPGAQPGAQPGAQPGAQPGAQPGAQPARQGDHCPLGPGRCCRLHTVRASLEDLGWADWVLSPREVQVTMCIGACPSQFRAANLHAQIKTSLHRLRPDTVPAPCCVPASYNPMVLIQRTDTGVSLQTYDDLLARDCHCI
modifications: Moiety A conjugated at linker K1, K55
B12: MLC081: fusion polypeptide SEQ ID NO: 374 conjugated with Moiety C at 35C of Linker (conjugate)
chain: B11 chain with R20K, K32G, E66C, A81Q, Q82E, K86Q, R180K, R202K, R218K
modifications: Moiety C conjugated at linker Cys35
B13: MLC080: fusion polypeptide SEQ ID NO: 374 conjugated with Moiety B at 35C of Linker (conjugate)
chain: B11 chain with R20K, K32G, E66C, A81Q, Q82E, K86Q, R180K, R202K, R218K
modifications: Moiety B conjugated at linker C35
B14: MLC083: fusion polypeptide SEQ ID NO: 376 conjugated with Moiety B at 39C of Linker (conjugate)
chain: B11 chain with R20K, K32G, A69Q, Q70C, K86Q, R180K, R202K, R218K
modifications: Moiety B conjugated at linker Cys39
B15: MLC084: fusion polypeptide SEQ ID NO: 376 conjugated with Moiety C at 39C of Linker (conjugate)
chain: B11 chain with R20K, K32G, A69Q, Q70C, K86Q, R180K, R202K, R218K
modifications: Moiety C conjugated at linker Cys39

Test: Body weight and food intake in C57BL/6 mice, fusion protein conjugates, 30 nmol/kg daily 10 days
Type: in vivo
Method: 10 week old male C57BL/6 mice were injected everyday subcutaneously with 15 nmol/kg of the fusion protein conjugates (i.e., MLC002, MLC 004, MLC 005, MLC 006, MLC 007, MLC 008, and MLC 009) for 14 days. Food intake and body weight were measured daily and five animals were used for each treatment group. Body weight (BW) was monitored for each individual animal, but food intake for each group animals was measured together. Day 1 and Day 14 are first day and last day of molecule dosage. % BW loss=100*(BW on Day n-BW on Day 1)/(BW on Day 1). Cumulative food intake on Day n represents sum of food intake from Day 1 to Day n. Data are indicated as mean values and standard error (SEM) or pooled values. Statistical analysis was performed by One-way ANOVA. Body weight reduction on Day 11 is calculated by −1*(% BW loss−% BW loss of vehicle group); Cumulative food intake reduction is calculated by −100*(cumulative food intake-cumulative food intake of vehicle)/cumulative food intake of vehicle.
Data were calculated in the same way as described above. Day 1 and Day 10 are first day and last day of the administration.
MLC014 was used as a negative control. MLC014 has an amino acid sequence of SEQ ID NO: 261, which contains a linker fused to the N terminal of GDF15, with a CRM conjugated to the lysine residue in the linker. Tirzepatide was also used as a control.

Molecule | Body weight reduction at 30 nmol/kg (% reduction compared to vehicle)(Day11) | Cumulative food intake reduction at 30 nmol/kg (% reduction compared to vehicle)(Day11)
Tirzepatide [reference compound] | 10.5% | 23.0%
B1 | 17.4% | 30.5%
B2 | 19.1% | 40.7%
B3 | 23.5% | 48.1%
B4 | 23.3% | 36.2%
B5 | 24.0% | 43.6%
B6 | 24.6% | 41.4%
B7 | 22.7% | 29.4%
B8 | 22.0% | 29.1%
B9 | 30.6% | 37.2%
B10 | 9.5% | 27.3%
B11 | 20.6% | 27.8%
B12 | 21.5% | 39.0%
B13 | 17.2% | 33.2%
B14 | 21.6% | 50.5%
B15 | 20.7% | 36.2%
